Laboratory results taken from article doi:10.1101/698563 (bioRxiv, 2019).

Target: human carcinoembryonic antigen (CEA) (Homo sapiens, UniProt P06731)
Test: flow cytometry on cells

human carcinoembryonic antigen (CEA), sequence (P06731 35-685): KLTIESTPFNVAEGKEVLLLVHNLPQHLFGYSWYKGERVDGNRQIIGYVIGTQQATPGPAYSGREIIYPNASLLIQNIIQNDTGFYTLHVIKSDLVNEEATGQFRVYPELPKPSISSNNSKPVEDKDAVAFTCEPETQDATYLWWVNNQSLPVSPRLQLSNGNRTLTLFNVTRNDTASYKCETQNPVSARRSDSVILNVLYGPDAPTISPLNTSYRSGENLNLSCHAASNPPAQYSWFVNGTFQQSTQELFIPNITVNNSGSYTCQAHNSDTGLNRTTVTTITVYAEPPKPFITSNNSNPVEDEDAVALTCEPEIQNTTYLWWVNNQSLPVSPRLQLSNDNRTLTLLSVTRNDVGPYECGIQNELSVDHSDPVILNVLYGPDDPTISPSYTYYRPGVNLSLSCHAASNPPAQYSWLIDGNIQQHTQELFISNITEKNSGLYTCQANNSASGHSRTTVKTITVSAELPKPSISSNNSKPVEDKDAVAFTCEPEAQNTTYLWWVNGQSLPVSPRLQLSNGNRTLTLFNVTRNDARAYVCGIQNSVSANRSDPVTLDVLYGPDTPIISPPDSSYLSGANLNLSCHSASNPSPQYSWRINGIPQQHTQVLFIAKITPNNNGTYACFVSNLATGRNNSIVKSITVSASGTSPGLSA

binding result: binds
B1: Sm3E-TNF (scFv, V domains shown)
VH: QVKLEQSGAEVVKPGASVKLSCKASGFNIKDSYMHWLRQGPGQRLEWIGWIDPENGDTEYAPKFQGKATFTTDTSANTAYLGLSSLRPEDTAVYYCNEGTPTGPYYFDYWGQGTLVTVSS
VL: ENVLTQSPSSMSVSVGDRVTIACSASSSVPYMHWLQQKPGKSPKLLIYLTSNLASGVPSRFSGSGSGTDYSLTISSVQPEDAATYYCQQRSSYPLTFGGGTKLEIK
